This note sets out measurements from paper PMC10213618 (Frontiers in Immunology, 2023).

The target in assay [1] is T1, IL-17A (UniProt Q16552 24-155).
T1 construct: also called IL-17A homodimer; IL-7A [sic]
As to the kind of experiment: SPR; IL-17A amine-coupled to a CM5 chip (110-270 RU); chimeric peptides 1000 nM to 15.5 nM flowed in HBS-EP+; steady state fitting. To be noted: both partners purified.

A further assay addresses T2, mouse serum albumin (mouse, UniProt P07724 25-608).
T2 construct: mouse serum albumin; also called MSA
Put plainly: SPR; HSA or MSA amine-coupled to a CM5 chip (110-270 RU); peptides 1000 nM to 15.5 nM flowed in HBS-EP+; multi-cycle kinetics, 1:1 binding model. To be noted: both partners purified. A general note: In SPR one partner is held on a chip, and binding of the other changes the refractive index at the surface.

The target of assay [2] is T1, IL-17A. As to the kind of experiment: cell-based or functional assay.
The next assay addresses T3, human TNFα (Homo sapiens, UniProt P01375).
T3 construct: human tumour necrosis factor alpha, UniProt P01375
Put plainly: SPR; Biacore 8K+, multi-cycle kinetics, 25°C; Fab captured by immobilised anti-human Fab antibodies; serial dilutions of TNFα injected in HBS-EP+; 1:1 binding model. To be noted: both partners purified.

Primed or numbered codes have the meaning given here. Where no end group is shown, it is not given here. [ ]: non-standard residue; d: D form. PEG2′ = diethylene glycolate linker

T2 sequence (P07724 25-608): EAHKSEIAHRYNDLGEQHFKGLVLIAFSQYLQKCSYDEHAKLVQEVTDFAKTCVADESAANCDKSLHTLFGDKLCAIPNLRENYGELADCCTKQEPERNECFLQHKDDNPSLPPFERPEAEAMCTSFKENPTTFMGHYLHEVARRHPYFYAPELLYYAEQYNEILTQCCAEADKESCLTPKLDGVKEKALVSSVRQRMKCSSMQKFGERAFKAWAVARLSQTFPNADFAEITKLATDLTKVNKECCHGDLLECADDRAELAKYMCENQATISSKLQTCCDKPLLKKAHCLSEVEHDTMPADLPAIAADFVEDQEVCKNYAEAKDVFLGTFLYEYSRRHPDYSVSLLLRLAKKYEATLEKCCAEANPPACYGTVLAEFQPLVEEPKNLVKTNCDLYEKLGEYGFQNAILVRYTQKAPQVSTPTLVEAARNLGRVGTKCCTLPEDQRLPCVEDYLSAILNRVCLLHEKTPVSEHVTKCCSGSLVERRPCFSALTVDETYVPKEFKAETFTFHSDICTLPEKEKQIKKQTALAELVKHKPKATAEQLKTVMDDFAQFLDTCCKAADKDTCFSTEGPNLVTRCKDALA
T3 sequence (P01375 whole entry): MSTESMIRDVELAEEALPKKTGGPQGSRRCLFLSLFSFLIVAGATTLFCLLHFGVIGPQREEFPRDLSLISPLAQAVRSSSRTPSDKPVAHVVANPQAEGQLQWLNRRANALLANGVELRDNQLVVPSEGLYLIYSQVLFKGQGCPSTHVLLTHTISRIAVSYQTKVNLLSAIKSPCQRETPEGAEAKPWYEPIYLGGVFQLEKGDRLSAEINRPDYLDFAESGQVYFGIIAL
T1 sequence (Q16552 24-155): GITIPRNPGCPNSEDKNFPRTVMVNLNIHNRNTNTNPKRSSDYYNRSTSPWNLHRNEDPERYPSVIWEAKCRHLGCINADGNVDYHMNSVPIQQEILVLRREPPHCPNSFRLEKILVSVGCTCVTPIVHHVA

B1: aMSA-HAP chimeric peptide (peptide)
chain: IHVTIPADLWDWINK[PEG2′]TCPDGQRDRGGCSGPYSCGGDNCCAYAAASVYRGYSCKDTYEW
modifications: disulfide (positions not given here); not fully specified
B1 displayed a Kd in the assay with IL-17A [1] of 275 nM. In addition, in the assay with mouse serum albumin, the affinity, expressed as Kd, was 370 nM; the off-rate constant (koff) came to 0.00166 s⁻¹; the kon amounted to 4500 M⁻¹ s⁻¹. The “IC50 of inhibition of IL-6 release from human dermal fibroblasts stimulated with IL-17A and TNFα (blocks IL-17A with IL-17RA)” value in the assay with IL-17A [2] was 38 nM.

B2: FabT (Fab, V domains shown)
VH: EVQLVESGGGLVKPGGSLRLSCAASGYTFTDNYIHWVRQAPGKGLEWIGYINPSSAYAHYNEKFKTRFTISVDKAKNSAYLQMNSLRAEDTAVYYCTRRYYSAMPFAYWGQGTLVTVSS
VL: DIQMTQSPSSLSASVGDRVTITCRASEDIYSGLAWYQQKPGKVPKLLIYDSSTLHTGVPSRFSGTGSGTDYTLTISSLQPEDVATYFCQQNYDFPLTFGQGTKLEIK
notes: humanised VH with human gamma1 CH1; humanised VL with human C kappa; also called parent FabT; unmodified FabT fragment; source: CHO-S XE, transient, purified (Protein G, SEC)
Regarding B2, in the assay with human TNFα, the Kd was determined as 0.221 nM, the koff was 9.9e-05 s⁻¹ and the kon was 447000 M⁻¹ s⁻¹.

By Kd is commonly meant the equilibrium constant for the complex coming apart. Read a low Kd as a tighter complex. Broadly, the koff is the rate constant with which the complex falls apart. The low end stands for slow dissociation, the high end for fast dissociation. The kon is the second-order rate constant of association.
